The numbers were not newly measured in paper PMC11858487, which cites them from elsewhere.

The data set deals with EGFR (Homo sapiens) (UniProt P00533).

The term Kd denotes the equilibrium constant for the complex coming apart. Regarding [99mTc]Tc-SYPIPDT-ECG-TAMRA, the Kd was 76.5 nM.
